Measured values from patent US12467929.

Tests used:
[1] = biological target: recombinant UBE3A protein (Homo sapiens (Human)) (UniProt Q05086); assay: 2-step Simoa; capture Novus; UBE3A 10 ng/ml
[2] = biological target: recombinant UBE3A protein (Homo sapiens (Human)) (UniProt Q05086); assay: 3-step Simoa; capture GTX; UBE3A 0.1 ng/ml
[3] = biological target: recombinant UBE3A protein (Homo sapiens (Human)) (UniProt Q05086); assay: 2-step Simoa; capture GTX; UBE3A 0.01 ng/ml
[4] = biological target: recombinant UBE3A protein (Homo sapiens (Human)) (UniProt Q05086); assay: 2-step Simoa; capture MS 2F6; UBE3A 0.01 ng/ml
[5] = biological target: recombinant UBE3A protein (Homo sapiens (Human)) (UniProt Q05086); assay: 3-step Simoa; capture GTX; UBE3A 0.01 ng/ml
[6] = biological target: recombinant UBE3A protein (Homo sapiens (Human)) (UniProt Q05086); assay: 2-step Simoa; capture GTX; UBE3A 1 ng/ml
[7] = biological target: recombinant UBE3A protein (Homo sapiens (Human)) (UniProt Q05086); assay: 3-step Simoa; capture MS 2F6; UBE3A 1 ng/ml
[8] = biological target: recombinant UBE3A protein (Homo sapiens (Human)) (UniProt Q05086); assay: 2-step Simoa; capture Novus; UBE3A 1 ng/ml
[9] = biological target: recombinant UBE3A protein (Homo sapiens (Human)) (UniProt Q05086); assay: 3-step Simoa; capture MS 2F6; UBE3A 0.1 ng/ml
[10] = biological target: recombinant UBE3A protein (Homo sapiens (Human)) (UniProt Q05086); assay: 3-step Simoa; capture Novus; UBE3A 0.01 ng/ml
[11] = biological target: recombinant UBE3A protein (Homo sapiens (Human)) (UniProt Q05086); assay: 3-step Simoa; capture Novus; UBE3A 1 ng/ml
[12] = biological target: recombinant UBE3A protein (Homo sapiens (Human)) (UniProt Q05086); assay: 3-step Simoa; capture Novus; UBE3A 0.1 ng/ml
[13] = biological target: recombinant UBE3A protein (Homo sapiens (Human)) (UniProt Q05086); assay: 2-step Simoa; capture MS 2F6; UBE3A 1 ng/ml
[14] = biological target: recombinant UBE3A protein (Homo sapiens (Human)) (UniProt Q05086); assay: 3-step Simoa; capture Novus; UBE3A 10 ng/ml
[15] = biological target: recombinant UBE3A protein (Homo sapiens (Human)) (UniProt Q05086); assay: 3-step Simoa; capture GTX; UBE3A 10 ng/ml
[16] = biological target: recombinant UBE3A protein (Homo sapiens (Human)) (UniProt Q05086); assay: 2-step Simoa; capture MS 2F6; UBE3A 10 ng/ml
[17] = biological target: recombinant UBE3A protein (Homo sapiens (Human)) (UniProt Q05086); assay: 3-step Simoa; capture MS 2F6; UBE3A 10 ng/ml
[18] = biological target: recombinant UBE3A protein (Homo sapiens (Human)) (UniProt Q05086); assay: 2-step Simoa; capture Novus; UBE3A 0.1 ng/ml
[19] = biological target: recombinant UBE3A protein (Homo sapiens (Human)) (UniProt Q05086); assay: 2-step Simoa; capture MS 2F6; UBE3A 0.1 ng/ml
[20] = biological target: recombinant UBE3A protein (Homo sapiens (Human)) (UniProt Q05086); assay: 2-step Simoa; capture Novus; UBE3A 0.01 ng/ml
[21] = biological target: recombinant UBE3A protein (Homo sapiens (Human)) (UniProt Q05086); assay: 3-step Simoa; capture GTX; UBE3A 1 ng/ml
[22] = biological target: recombinant UBE3A protein (Homo sapiens (Human)) (UniProt Q05086); assay: 2-step Simoa; capture GTX; UBE3A 10 ng/ml

UniProt Q05086, sequence (Q05086 whole entry): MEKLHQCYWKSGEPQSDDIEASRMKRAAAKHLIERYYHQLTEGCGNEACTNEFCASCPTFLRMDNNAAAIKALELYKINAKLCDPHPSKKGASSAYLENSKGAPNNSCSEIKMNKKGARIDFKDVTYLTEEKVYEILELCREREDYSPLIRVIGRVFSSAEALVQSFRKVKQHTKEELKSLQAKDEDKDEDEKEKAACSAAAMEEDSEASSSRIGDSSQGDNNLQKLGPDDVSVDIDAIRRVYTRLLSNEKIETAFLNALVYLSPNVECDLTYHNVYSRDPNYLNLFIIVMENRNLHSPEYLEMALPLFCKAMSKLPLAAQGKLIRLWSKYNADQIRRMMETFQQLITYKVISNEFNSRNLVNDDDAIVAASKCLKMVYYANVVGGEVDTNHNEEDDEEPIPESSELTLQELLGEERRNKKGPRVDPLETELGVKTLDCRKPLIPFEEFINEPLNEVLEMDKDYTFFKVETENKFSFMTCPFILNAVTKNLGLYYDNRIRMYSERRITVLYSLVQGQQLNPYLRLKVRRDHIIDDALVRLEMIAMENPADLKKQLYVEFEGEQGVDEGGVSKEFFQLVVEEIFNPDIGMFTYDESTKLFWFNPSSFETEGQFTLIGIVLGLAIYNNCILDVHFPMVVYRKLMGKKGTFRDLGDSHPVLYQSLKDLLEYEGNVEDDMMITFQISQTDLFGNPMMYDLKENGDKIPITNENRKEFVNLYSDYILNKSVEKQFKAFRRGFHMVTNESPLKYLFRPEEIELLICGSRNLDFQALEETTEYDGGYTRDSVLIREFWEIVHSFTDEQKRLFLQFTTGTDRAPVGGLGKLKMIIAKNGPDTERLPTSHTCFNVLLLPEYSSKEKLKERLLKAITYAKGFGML

AEB1 [1]: 0.174
AEB2 [1]: 0.164
Ave AEB [1]: 0.169
Signal to Background [1]: 6.77
AEB1 [2]: 0.0204
AEB2 [2]: 0.0181
Ave AEB [2]: 0.0192
Signal to Background [2]: 2.25
AEB1 [3]: 0.0162
AEB2 [3]: 0.0168
Ave AEB [3]: 0.0165
AEB1 [4]: 0.0113
AEB2 [4]: 0.0141
Ave AEB [4]: 0.0127
Signal to Background [4]: 1.13
AEB1 [5]: 0.0084
AEB2 [5]: 0.0082
Ave AEB [5]: 0.0083
Signal to Background [5]: 0.972
AEB1 [6]: 0.152
AEB2 [6]: 0.157
Ave AEB [6]: 0.154
AEB1 [7]: 0.0206
AEB2 [7]: 0.0228
Ave AEB [7]: 0.0217
Signal to Background [7]: 5.52
AEB1 [8]: 0.0412
AEB2 [8]: 0.0426
Ave AEB [8]: 0.0419
Signal to Background [8]: 1.68
AEB1 [9]: 0.0063
AEB2 [9]: 0.0064
Ave AEB [9]: 0.0063
Signal to Background [9]: 1.62
AEB1 [10]: 0.0105
AEB2 [10]: 0.0102
Ave AEB [10]: 0.0104
Signal to Background [10]: 1.09
AEB1 [11]: 0.0276
AEB2 [11]: 0.0233
Ave AEB [11]: 0.0254
Signal to Background [11]: 2.68
AEB1 [12]: 0.0142
AEB2 [12]: 0.0119
Ave AEB [12]: 0.013
Signal to Background [12]: 1.38
AEB1 [13]: 0.0424
AEB2 [13]: 0.0451
Ave AEB [13]: 0.0437
Signal to Background [13]: 3.9
AEB1 [14]: 0.159
AEB2 [14]: 0.154
Ave AEB [14]: 0.156
Signal to Background [14]: 16.5
AEB1 [15]: 0.404
AEB2 [15]: 0.425
Ave AEB [15]: 0.414
Signal to Background [15]: 48.5
AEB1 [16]: 0.334
AEB2 [16]: 0.338
Ave AEB [16]: 0.336
Signal to Background [16]: 30
AEB1 [17]: 0.177
AEB2 [17]: 0.188
Ave AEB [17]: 0.183
Signal to Background [17]: 46.6
AEB1 [18]: 0.0237
AEB2 [18]: 0.0272
Ave AEB [18]: 0.0255
Signal to Background [18]: 1.02
AEB1 [19]: 0.0169
AEB2 [19]: 0.0141
Ave AEB [19]: 0.0155
Signal to Background [19]: 1.38
AEB1 [20]: 0.0302
AEB2 [20]: 0.0257
Ave AEB [20]: 0.028
Signal to Background [20]: 1.12
AEB2 [21]: 0.0774
Ave AEB [21]: 0.0774
Signal to Background [21]: 9.06
AEB1 [22]: 0.724
Ave AEB [22]: 0.724
Substance: anti-UBE3A antibody 3E5 (SAB1404508-100 ug, Millipore-Sigma)
